This passage reports Kd, koff and kon results from paper PMC6310132.

Holding throughout (assay): SPR
A general note: SPR reads the build-up and loss of mass on a sensor chip optically.

Test [1] addresses rat organ of Corti AP2mu1, pRSET-A fusion protein (SPR and Figure 7A,B) (rat) (UniProt P84092).
The target in test [2] is N-ethylmaleimide-sensitive factor (NSF), pRSET-A fusion protein (mouse) (UniProt P46460).
In test [3] the target is trout saccular hair cell snapin, pRSET-A fusion protein (trout).
Test [4] deals with trout saccular hair cell dopamine D1A4 carboxy terminus, pRSET-A fusion protein (trout).
For test [5], the target named is trout saccular hair cell otoferlin C2F domain, pRSET-A fusion protein (trout).

Sequence of N-ethylmaleimide-sensitive factor (NSF), pRSET-A fusion protein (mouse) (P46460 whole entry, the tested form may be a part): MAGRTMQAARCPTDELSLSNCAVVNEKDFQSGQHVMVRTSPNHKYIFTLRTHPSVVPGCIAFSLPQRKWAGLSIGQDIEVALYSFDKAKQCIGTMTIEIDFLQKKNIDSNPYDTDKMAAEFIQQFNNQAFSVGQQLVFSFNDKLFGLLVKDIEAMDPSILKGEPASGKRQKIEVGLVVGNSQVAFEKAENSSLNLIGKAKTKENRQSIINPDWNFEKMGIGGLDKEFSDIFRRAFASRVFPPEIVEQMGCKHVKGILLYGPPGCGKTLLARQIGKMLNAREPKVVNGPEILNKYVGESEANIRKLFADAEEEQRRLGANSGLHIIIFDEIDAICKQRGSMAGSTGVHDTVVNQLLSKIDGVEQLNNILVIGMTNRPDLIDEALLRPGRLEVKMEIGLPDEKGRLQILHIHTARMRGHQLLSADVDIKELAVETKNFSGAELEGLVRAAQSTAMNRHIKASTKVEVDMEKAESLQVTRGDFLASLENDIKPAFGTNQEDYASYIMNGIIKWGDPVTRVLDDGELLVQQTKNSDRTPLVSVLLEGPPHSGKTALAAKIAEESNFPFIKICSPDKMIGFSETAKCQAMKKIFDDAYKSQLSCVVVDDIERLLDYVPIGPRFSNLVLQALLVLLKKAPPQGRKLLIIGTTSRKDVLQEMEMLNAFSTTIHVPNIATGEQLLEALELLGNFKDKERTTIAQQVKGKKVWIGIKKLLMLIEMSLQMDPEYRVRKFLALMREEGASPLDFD

In test [1], “rat organ of Corti otoferlin C2F domain, pRSET-A fusion protein used for SPR (domain or fragment)” gave a Kd of 129 nM, an off-rate (koff) of 0.00273 s⁻¹ and a kon of 21200 M⁻¹ s⁻¹. In test [2], this substance returned a Kd of 2.29 nM and an off-rate constant (koff) of 0.00073 s⁻¹.
In test [3], “trout saccular hair cell dopamine D1A4 carboxy terminus, pRSET-A fusion protein (domain or fragment)” showed a dissociation constant Kd of 14.6 nM and an off-rate constant (koff) of 0.00174 s⁻¹.
As for “trout saccular hair cell otoferlin C2F domain, pRSET-A fusion protein (domain or fragment)”, in test [3], the Kd was found to be 13 nM and the koff worked out at 0.00407 s⁻¹.
On to “trout saccular hair cell snapin, pRSET-A fusion protein (domain or fragment)”, for which, in test [4], the Kd was found to be 26.9 nM and the koff was 0.00784 s⁻¹. In test [5], this substance registered a Kd of 23.4 nM and a koff of 0.00348 s⁻¹.

What is called Kd is the free concentration of one partner at which half of the binding sites on the other are occupied at equilibrium, for simple one-to-one binding. What is called koff is the rate constant with which the complex falls apart. A high value points to fast dissociation. For orientation: kon means the rate constant with which the complex forms.
